# Tests used:
# [1] = molecular target: GST-ETV4(1-335)(WT) SUMOylated with wild-type SUMO3, P28322;P55854; experiment: GST pulldown; details: printed grade '++' (legend: ≥50% of RNF4(WT)); parent: +++ (≥80%)
# MBP-RNF4(WT) = MBP-RNF4(WT) (UniProt O88846); experiment: GST pulldown; details: for ratio to parent: parent: est. 1.0, read off a plot
substance,measurement,setting,value
"MBP-RNF4(WT) (from UniProt O88846) SIM1,2mut",percent of parent (% of RNF4(WT)),[1],50
GST-ETV4(1-480)(WT) modified with SUMO3(K11R) (from UniProt P28322;P55854) K96R; K222R; K256R; K328R,response (% bound relative to input),"MBP-RNF4(WT); ETV4 co-expressed in bacteria with SUMO3(K11R), lane 5, parent: 49",3
same,ratio to parent,MBP-RNF4(WT); ETV4 co-expressed with SUMO3(K11R),0.05
GST-ETV4(1-480)(WT) modified with SUMO3(WT) (from UniProt P28322;P55854) K96R; K222R; K256R; K328R,response (% bound relative to input),"MBP-RNF4(WT); ETV4 co-expressed in bacteria with SUMO3(WT), lane 1, parent: 60",12
same,ratio to parent,MBP-RNF4(WT); ETV4 co-expressed with SUMO3(WT),0.03

# — paper PMC5445624
